# Measured values reported in IntAct's records for PubMed 29892012.
# B1: Centrosomal protein POC5 (Homo sapiens), Q8NA72 (parent)
# chain: MSSDEEKYSLPVVQNDSSRGSSVSSNLQEEYEELLHYAIVTPNIEPCASQSSHPKGELVPDVRISTIHDILHSQGNNSEVRETAIEVGKGCDFHISSHSKTDESSPVLSPRKPSHPVMDFFSSHLLADSSSPATNSSHTDAHEILVSDFLVSDENLQKMENVLDLWSSGLKTNIISELSKWRLNFIDWHRMEMRKEKEKHAAHLKQLCNQINELKELQKTFEISIGRKDEVISSLSHAIGKQKEKIELMRTFFHWRIGHVRARQDVYEGKLADQYYQRTLLKKVWKVWRSVVQKQWKDVVERACQARAEEVCIQISNDYEAKVAMLSGALENAKAEIQRMQHEKEHFEDSMKKAFMRGVCALNLEAMTIFQNRNDAGIDSTNNKKEEYGPGVQGKEHSAHLDPSAPPMPLPVTSPLLPSPPAAVGGASATAVPSAASMTSTRAASASSVHVPVSALGAGSAATAASEEMYVPRVVTSAQQKAGRTITARITGRCDFASKNRISSSLAIMGVSPPMSSVVVEKHHPVTVQTIPQATAAKYPRTIHPESSTSASRSLGTRSAHTQSLTSVHSIKVVD
# B2: Centrosomal protein POC5 (Homo sapiens), Q8NA72 (parent)
# chain: B1 chain
# partner: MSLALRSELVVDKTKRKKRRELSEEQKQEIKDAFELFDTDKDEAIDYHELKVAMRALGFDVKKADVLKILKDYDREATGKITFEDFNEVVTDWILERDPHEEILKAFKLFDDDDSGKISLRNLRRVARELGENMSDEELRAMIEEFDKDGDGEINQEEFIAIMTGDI
# B3: Centrosomal protein POC5 (Homo sapiens), Q8NA72 (parent)
# chain: B1 chain
# partner: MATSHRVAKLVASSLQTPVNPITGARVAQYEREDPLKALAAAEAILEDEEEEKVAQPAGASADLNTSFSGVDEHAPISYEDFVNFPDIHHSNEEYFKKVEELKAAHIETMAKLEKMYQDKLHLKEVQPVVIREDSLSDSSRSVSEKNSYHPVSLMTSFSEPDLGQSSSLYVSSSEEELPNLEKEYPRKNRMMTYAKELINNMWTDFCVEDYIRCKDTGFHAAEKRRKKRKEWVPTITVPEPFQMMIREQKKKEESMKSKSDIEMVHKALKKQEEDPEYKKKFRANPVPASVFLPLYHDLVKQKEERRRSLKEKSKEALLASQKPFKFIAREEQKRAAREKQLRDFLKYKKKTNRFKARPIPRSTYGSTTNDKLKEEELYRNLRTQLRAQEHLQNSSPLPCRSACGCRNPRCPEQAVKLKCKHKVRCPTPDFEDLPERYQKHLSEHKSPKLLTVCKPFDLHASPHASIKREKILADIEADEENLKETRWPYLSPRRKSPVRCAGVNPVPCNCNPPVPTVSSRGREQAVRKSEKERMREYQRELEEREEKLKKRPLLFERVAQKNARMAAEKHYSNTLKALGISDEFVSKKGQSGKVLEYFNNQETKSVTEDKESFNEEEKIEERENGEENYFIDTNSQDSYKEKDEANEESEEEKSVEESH
# B4: Chorion-specific transcription factor GCMb (Homo sapiens), O75603 (parent)
# chain: MPAAAVQEAVGVCSYGMQLSWDINDPQMPQELALFDQFREWPDGYVRFIYSSDEKKAQRHLSGWAMRNTNNHNGHILKKSCLGVVVCTQACTLPDGSRLQLRPAICDKARLKQQKKACPNCHSALELIPCRGHSGYPVTNFWRLDGNAIFFQAKGVHDHPRPESKSETEARRSAIKRQMASFYQPQKKRIRESEAEENQDSSGHFSNIPPLENPEDFDIVTETSFPIPGQPCPSFPKSDVYKATCDLATFQGDKMPPFQKYSSPRIYLPRPPCSYELANPGYTNSSPYPTLYKDSTSIPNDTDWVHLNTLQCNVNSYSSYERSFDFTNKQHGWKPALGKPSLVERTNHGQFQAMATRPYYNPELPCRYLTTPPPGAPALQTVITTTTKVSYQAYQPPAMKYSDSVREVKSLSSCNYAPEDTGMSVYPEPWGPPVTVTRAASPSGPPPMKIAGDCRAIRPTVAIPHEPVSSRTDEAETWDVCLSGLGSAVSYSDRVGPFFTYNNEDF
# partner: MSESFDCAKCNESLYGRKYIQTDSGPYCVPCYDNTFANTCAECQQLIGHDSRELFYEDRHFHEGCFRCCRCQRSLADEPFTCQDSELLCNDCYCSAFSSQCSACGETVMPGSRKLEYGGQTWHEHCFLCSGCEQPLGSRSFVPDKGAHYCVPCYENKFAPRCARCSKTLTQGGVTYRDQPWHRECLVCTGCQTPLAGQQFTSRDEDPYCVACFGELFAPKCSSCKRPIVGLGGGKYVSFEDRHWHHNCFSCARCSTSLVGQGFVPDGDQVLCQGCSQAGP
# B5: Chorion-specific transcription factor GCMb (Homo sapiens), O75603 (parent)
# chain: B4 chain
# B6: Chorion-specific transcription factor GCMb (Homo sapiens), O75603 (parent)
# chain: B4 chain
# partner: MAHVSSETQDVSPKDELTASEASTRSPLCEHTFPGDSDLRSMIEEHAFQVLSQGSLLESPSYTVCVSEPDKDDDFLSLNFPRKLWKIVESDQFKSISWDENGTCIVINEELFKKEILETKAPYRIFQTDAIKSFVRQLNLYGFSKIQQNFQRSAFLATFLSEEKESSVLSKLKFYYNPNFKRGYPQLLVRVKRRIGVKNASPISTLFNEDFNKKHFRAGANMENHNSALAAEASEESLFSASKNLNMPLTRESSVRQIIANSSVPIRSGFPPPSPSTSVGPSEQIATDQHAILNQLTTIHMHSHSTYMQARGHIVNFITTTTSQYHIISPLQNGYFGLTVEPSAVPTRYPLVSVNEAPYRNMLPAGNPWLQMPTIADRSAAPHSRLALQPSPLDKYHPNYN
# Variants of: B1
# Settings: with cetn1_human CETN1, Q12798
# Sequence of cetn1_human CETN1, Q12798 (Q12798 whole entry): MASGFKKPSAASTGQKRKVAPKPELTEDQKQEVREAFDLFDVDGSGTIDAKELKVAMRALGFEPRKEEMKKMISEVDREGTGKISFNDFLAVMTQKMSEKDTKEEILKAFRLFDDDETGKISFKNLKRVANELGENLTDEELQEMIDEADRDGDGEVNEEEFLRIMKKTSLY
row,Variant,effect of a mutation on the interaction
1,M469T,with no effect

# Variants of: B1
# Settings: with cetn2_human CETN2, P41208
# Sequence of cetn2_human CETN2, P41208 (P41208 whole entry): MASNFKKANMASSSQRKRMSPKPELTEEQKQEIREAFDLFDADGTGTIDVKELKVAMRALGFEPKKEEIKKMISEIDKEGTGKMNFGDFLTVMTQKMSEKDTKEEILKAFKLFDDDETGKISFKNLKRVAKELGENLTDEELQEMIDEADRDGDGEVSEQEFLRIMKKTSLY
row,Variant,effect of a mutation on the interaction
1,M469T,with no effect

# Variants of: B2
# Settings: with cetn3_human CETN3, O15182
row,Variant,effect of a mutation on the interaction
1,M469T,with no effect

# Variants of: B3
# Settings: with FAM161A
row,Variant,effect of a mutation on the interaction
1,M469T,with no effect

# Variants of: B4
# Settings: with fhl3_human FHL3, Q13643
row,Variant,effect of a mutation on the interaction
1,G349E,with no effect

# Variants of: B5
# Settings: with crx_human CRX
row,Variant,effect of a mutation on the interaction
1,G349E,with no effect

# Variants of: B5
# Settings: with rbpms_human RBPMS
row,Variant,effect of a mutation on the interaction
1,G349E,with no effect

# Variants of: B6
# Settings: with hsfy1_human HSFY1, Q96LI6
row,Variant,effect of a mutation on the interaction
1,G349E,with no effect
